The results in this text go back to patent publication US20120107299.

The subject of the data set is GST protein [GST: P08515].

GST protein [GST: P08515], sequence (P08515 whole entry): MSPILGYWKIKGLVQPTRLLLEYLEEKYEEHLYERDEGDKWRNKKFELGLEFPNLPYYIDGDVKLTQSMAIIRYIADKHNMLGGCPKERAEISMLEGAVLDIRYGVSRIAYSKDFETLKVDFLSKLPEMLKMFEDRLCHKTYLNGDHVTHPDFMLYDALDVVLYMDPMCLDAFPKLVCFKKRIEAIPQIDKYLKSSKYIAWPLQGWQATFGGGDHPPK

As for FLAG-PTEN, the “in vitro dephosphorylation of PTEN, Western blot with anti-PTEN antibodies specific to each phosphorylation” value is recorded as “dephosphorylation of PTEN was not recognized in the GST protein”.
